Test results from patent publication US20250215104A1.

How the values were obtained:
[1] = biological target: T1, human suPAR (hsuPAR) recombinant protein (human), Q03405; assay: BLI (Octet Red96E), WAb0014 on AHC sensor, hsuPAR captured, vitronectin as analyte (in the presence of WAb0014)
[2] = biological target: T1, human suPAR (hsuPAR) recombinant …; assay: BLI, with WAb0014 against without; conditions: remark: other sources report otherwise
[3] = biological target: T1, human suPAR (hsuPAR) recombinant …; assay: BLI (Octet Red96E), hsuPAR 2 µg/mL on streptavidin sensor, vitronectin as analyte

T1 sequence (Q03405 23-303): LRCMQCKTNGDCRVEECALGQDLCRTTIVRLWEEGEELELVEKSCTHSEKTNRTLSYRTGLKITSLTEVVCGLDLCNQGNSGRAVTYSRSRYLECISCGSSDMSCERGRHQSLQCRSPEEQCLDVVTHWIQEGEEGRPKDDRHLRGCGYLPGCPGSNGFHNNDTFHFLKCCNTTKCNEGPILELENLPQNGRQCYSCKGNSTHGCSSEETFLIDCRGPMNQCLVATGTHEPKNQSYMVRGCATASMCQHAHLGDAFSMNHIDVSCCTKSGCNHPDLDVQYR

Kd [1]: 62.2 nM
fold reduction in affinity in the presence of WAb0014 [2]: 5 fold
Kd [3]: 13.5 nM
B1: vitronectin, P04004 20-478 (ligand)
chain: DQESCKGRCTEGFNVDKKCQCDELCSYYQSCCTDYTAECKPQVTRGDVFTMPEDEYTVYDDGEEKNNATVHEQVGGPSLTSDLQAQSKGNPEQTPVLKPEEEAPAPEVGASKPEGIDSRPETLHPGRPQPPAEEELCSGKPFDAFTDLKNGSLFAFRGQYCYELDEKAVRPGYPKLIRDVWGIEGPIDAAFTRINCQGKTYLFKGSQYWRFEDGVLDPDYPRNISDGFDGIPDNVDAALALPAHSYSGRERVYFFKGKQYWEYQFQHQPSQEECEGSSLSAVFEHFAMMQRDSWEDIFELLFWGRTSAGTRQPQFISRDWHGVPGQVDAAMAGRIYISGMAPRPSLAKKQRFRHRNRKGYRSQRGHSRGRNQNSRRPSRATWLSLFSSEESNLGANNYDDYRMDWLVPATCEPIQSVFFFSGDKYYRVNLRTRRVDTVDPPYPRSIAQYWLGCPAPGHL
